Experimental data as given in patent US20050208042A1 (GENETICS INSTITUTE, published 2005).
Values belong to the binder of their own block, whether it stands above or below them.

How the values were obtained:
[1] = molecular target: T1, human B7-1 (CD80) expressed on the cell surface (CHO/hB7-1 cells) (human, UniProt P33681 35-288); experiment: competitive binding against 125I-humanized 1F1 on CHO cells expressing rhB7-1
T1 construct: whole, on cells; Also used for native B7-1 on human PBL in the MLR; also called rhB7-1
T1 sequence (looked up): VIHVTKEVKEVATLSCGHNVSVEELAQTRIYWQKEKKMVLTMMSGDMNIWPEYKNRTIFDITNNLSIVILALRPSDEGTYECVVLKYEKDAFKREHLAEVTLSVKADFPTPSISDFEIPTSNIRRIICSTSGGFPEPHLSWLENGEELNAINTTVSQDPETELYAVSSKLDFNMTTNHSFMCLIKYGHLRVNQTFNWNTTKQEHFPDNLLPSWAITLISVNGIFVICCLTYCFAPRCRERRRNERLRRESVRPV
Experimental: (§1) The affinity of the mouse and humanized 1F1 antibodies for the B7-1 antigen was determined by competitive binding with radio-iodinated humanized 1F1 antibody. Three-fold serial dilutions of unlabeled mouse or humanized 1F1 antibodies were mixed with a fixed amount of radio-iodinated humanized 1F1 antibody (40,000-50,000 cpm per test) in PBS containing 2% fetal calf serum, 0.1% sodium azide. 3×10⁴ CHO cells expressing cell surface rhB7-1 were added subsequently and the mixture (in a total volume of 200 μL) was incubated for 2 hr at 4° C. with gentle shaking. The cell-antibody suspension was then transferred to Sarstedt Micro Tubes (part #72.702) containing 100 μL of 80% dibutyl phthalate-20% olive oil. After centrifugation in a microfuge, the Sarstedt tubes were plunged into dry ice for several minutes. Cell-bound ¹²⁵I was determined by clipping the tips of each tube (containing cell pellets) into scintillation vials and counting in a gamma counter. Bound and free counts were determined and the ratio plotted against the concentrations of the cold competitor antibodies according to the method of Berzofsky and Berkower (J. A. Berzofsky and I. J. Berkower, in Fundamental Immunology, W. E. Paul, Raven Press, New York, pp. 595-644 (1984)).

[2] = molecular target: T2, human B7-1Ig (recombinant soluble hB7-1Ig) (human, UniProt P33681 35-242); experiment: SPR (BIACORE), hB7-1Ig immobilized, bivalent model, mean of three runs
T2 construct: extracellular domain; Secreted by CHO cells, purified on protein A, immobilized on the BIACORE chip; not shown: hinge-CH2-CH3 domains of human IgG1 heavy chain
T2 sequence (looked up): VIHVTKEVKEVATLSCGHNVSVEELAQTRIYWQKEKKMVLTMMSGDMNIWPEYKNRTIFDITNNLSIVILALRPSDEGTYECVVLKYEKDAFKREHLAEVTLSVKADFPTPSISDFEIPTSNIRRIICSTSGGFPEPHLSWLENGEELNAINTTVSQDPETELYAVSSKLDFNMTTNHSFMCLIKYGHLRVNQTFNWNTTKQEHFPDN
Experimental: (§2) The BIACORE® biosensor (BIACORE®, Uppsalla, Sweden) was used to determine binding kinetics of murine and humanized anti-B7-1 monoclonal antibodies to human B7-1Ig (hB7-1Ig) protein. Human B7-1Ig was immobilized onto the dextran matrix of a BIACORE® sensor chip. Humanized and murine anti-B7-1 mAbs were tested at 200, 100, 50, and 20 nM on the immobilized hB7-1Ig. Each mAb dilution was tested 4 times per run and a total of three separate runs were performed. Anti-human B7-1Ig binding was measured in real time by Surface Plasmon Resonance (SPR) and global analysis was performed using the bivalent binding model in BIA evaluation software (Version 3.1). For each sample, the association (kₐ) dissociation (kd) and equilibrium dissociation constant (KD) were determined.

[3] = molecular target: T1, human B7-1 (CD80) expressed on the cell …; experiment: competitive binding against 125I-murine anti-B7-1 on CHO/hB7-1 cells; murine anti-B7-1 mAb
Experimental: (§3) The relative affinities of the murine and humanized anti-B7-1 (1F1) antibodies for the B7-1 antigen were determined by competitive binding assays. Three-fold serial dilutions of the unlabeled murine or humanized anti-B7-1 mAbs were mixed with a fixed amount of radio-labeled murine anti-B7-1 mAb (¹²⁵I-anti-B7-1, 2800 cpm/fmol; 40,000-50,000 cpm/test in PBS containing 2% fetal calf serum). 1×10⁵ CHO/hB7-1 cells expressing hB7-1 on their surface were added subsequently and the mixture (total volume=200 μL) incubated for 2 hrs at 4° C. with gentle shaking. The cell antibody mixture was then transferred to Sarstedt Micro tubes (Part # 72.702) containing 100 μL of 80% dibutyl phthlate-20% olive oil. After centrifugation in a microfuge, the Sarstedt tubes were plunged into dry ice for several minutes. Cell bound ¹²⁵I-labeled mAb was determined by clipping the cell pellet containing tips of each tube into scintillation vials and counting in a gamma counter. Bound and free counts were determined. The bound counts were plotted against the concentration of the cold competitor mAbs.

[4] = molecular target: T1, human B7-1 (CD80) expressed on the cell …; experiment: competition binding on CHO cells expressing rhB7-1: unlabeled competitor against 125I-humanized 1F1 tracer, bound/free ratio
Experimental: as §1

[5] = molecular target: T2, human B7-1Ig (recombinant soluble …); experiment: SPR (BIACORE), hB7-1Ig immobilized
Experimental: as §2

[6] = molecular target: T1, human B7-1 (CD80) expressed on the cell …; experiment: competition binding on CHO/hB7-1 cells: unlabeled competitor against 125I-murine anti-B7-1 tracer, bound cpm
Experimental: as §3

[7] = molecular target: T1, human B7-1 (CD80) expressed on the cell …; experiment: cell-based or functional assay
[8] = molecular target: T3, human B7-2 (CD86) expressed on the cell surface (CHO/hB7-2 cells) (human, UniProt P42081 24-329); experiment: 125I direct binding, CHO cells expressing hB7-2 as control for non-specific binding
T3 construct: whole, on cells; Also used for native B7-2 on human PBL in the MLR row under functional; also called rhB7-2
T3 sequence (looked up): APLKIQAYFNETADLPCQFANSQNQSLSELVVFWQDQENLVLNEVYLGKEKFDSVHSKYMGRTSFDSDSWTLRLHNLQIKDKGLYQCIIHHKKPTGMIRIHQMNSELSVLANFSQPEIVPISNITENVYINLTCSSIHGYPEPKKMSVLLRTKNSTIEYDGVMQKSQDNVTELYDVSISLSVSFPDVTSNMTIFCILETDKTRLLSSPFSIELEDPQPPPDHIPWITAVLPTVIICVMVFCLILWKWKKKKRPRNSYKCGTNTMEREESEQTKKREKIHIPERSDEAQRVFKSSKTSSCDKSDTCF

[9] = molecular target: T1, human B7-1 (CD80) expressed on the cell …; experiment: competitive binding against 125I-murine anti-B7-1 on CHO/hB7-1 cells; humanized anti-B7-1 mAb
Experimental: as §3

[10] = molecular target: T1, human B7-1 (CD80) expressed on the cell …; experiment: direct binding of 125I-labeled antibody to CHO/hB7-1 cells, nonspecific binding (CHO cells with hB7-2) subtracted
Experimental: Binding assays were begun by plating CHO/hB7-1 cells onto 96 well tissue culture plates at 10,000 cells/well in complete medium and the plates incubated at 37° C. for two days. Adherent cells were washed gently with assay buffer (PBS containing nonfat dry milk and sodium azide). Murine and humanized anti-B7-1 mAbs labeled with ¹²⁵I were serially diluted in assay buffer and incubated with the cells overnight at 4° C. to allow biding to reach equilibrium. Unbound labeled antibody was removed from the cells by a series of gentle washings with assay buffer and the bound ¹²⁵I-labeled antibody was detected using a ¹²⁵I scintillant and detector system. Non-specific binding was determined for each dilution of labeled antibody in an identical manner as described above except that the target CHO cells expressed hB7-2 which is not bound by either the murine or humanized anti-B7-1 mAbs.
The mean value of triplicate determinations minus the non-specific binding was calculated and fit to a hyperbolic saturation binding curve using Graphpad Prism software. […] Both murine and humanized anti-B7-1 mAbs recognize cell surface expressed human B7-1.

Ka [1]: ~1e+09 M⁻¹
Kd [2]: 0.56 nM
Kd [3]: ~1 nM
IC50 (read off the curve) [4]: ~1 nM
fold higher binding affinity than the humanized anti-B7-1 mAb [5]: 5 fold
IC50 (read off the curve) [6]: ~1 nM
IC50 of inhibition of CD28+ human T cell proliferation stimulated with PMA and CHO/hB7-1 cells [7]: 0.22 nM
binding result [8]: no binding
B1: murine 1F1 monoclonal antibody (murine anti-human B7-1 mAb) (antibody, V domains shown)
VH: EVHLQQSGAELVRPGALVKLSCKPSGFNIKDYYMHWVKQRPEQGLEWIGWIDPENGNTLYDPKFQGKASITADTSSNTAYLQLSSLTSEDTAVYYCAREGLFFAYWGQGTPVTVSA
VL: EIVLTQSPALMAASPGEKVTITCSVSSSISSSNLHWYQQKSETSPKPWIYGTSNLASGVPVRFSGSGSGTSYSLTISSMEAEDAATYYCQQWSSYPLTFGAGTKLELK
notes: Hybridoma mouse antibody with kappa light chain; also called mouse 1F1; murine anti-B7-1

Kd [2]: 2.8 nM
Kd [9]: ~1 nM
EC50 (read off the curve) [10]: ~1 nM
IC50 (read off the curve) [6]: ~2 nM
IC50 of inhibition of CD28+ human T cell proliferation stimulated with PMA and CHO/hB7-1 cells [7]: 0.11 nM
binding result [8]: no binding
B2: humanized anti-B7-1 mAb (humanized 1F1), isotype not stated in the example (antibody, V domains shown)
VH: EVQLVQSGAEVKKPGASVKVSCKPSGFNIKDYYMHWVRQAPGQGLEWIGWIDPENGNTLYDPKFQGKATITADTSTSTAYMELSSLRSEDTAVYYCAREGLFFAYWGQGTLVTVSS
VL: DIQMTQSPSSLSASVGDRVTITCSVSSSISSSNLHWYQQKPGKAPKPLIYGTSNLASGVPSRFSGSGSGTDYTLTISSLQPEDVATYYCQQWSSYPLTFGQGTKVEIK
notes: Same variable regions as m8; also called hu1F1
